Reference: patent publication US20090214489A1 (published 2009)
Where no end group is shown, it is not given here.

T1: full length human TPO-R on transfected Ba/F3 cells (human, UniProt P40238 26-635)
T1 sequence (looked up): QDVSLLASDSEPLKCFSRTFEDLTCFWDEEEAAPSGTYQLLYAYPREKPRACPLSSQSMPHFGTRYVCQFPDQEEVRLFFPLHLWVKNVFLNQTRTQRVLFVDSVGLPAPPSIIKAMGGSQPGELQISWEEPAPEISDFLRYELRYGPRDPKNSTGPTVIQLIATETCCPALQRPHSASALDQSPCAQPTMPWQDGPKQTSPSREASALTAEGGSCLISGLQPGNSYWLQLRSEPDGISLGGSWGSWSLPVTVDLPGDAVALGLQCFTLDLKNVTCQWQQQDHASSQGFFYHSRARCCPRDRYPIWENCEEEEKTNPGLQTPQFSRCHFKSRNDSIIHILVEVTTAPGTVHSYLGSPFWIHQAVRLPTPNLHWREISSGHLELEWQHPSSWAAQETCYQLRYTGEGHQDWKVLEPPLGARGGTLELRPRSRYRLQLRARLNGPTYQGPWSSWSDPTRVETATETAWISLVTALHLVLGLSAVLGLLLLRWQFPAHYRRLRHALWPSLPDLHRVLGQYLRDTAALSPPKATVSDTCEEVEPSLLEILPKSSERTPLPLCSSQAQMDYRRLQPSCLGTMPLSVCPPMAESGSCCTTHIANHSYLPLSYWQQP


Tests used:
[1] = target: murine TPO receptor on Balb/C mouse marrow cells (mouse) (UniProt Q08351); experiment: cell-based or functional assay
[2] = target: T1, full length human TPO-R on transfected …; experiment: cell-based or functional assay

Molecule | activity (assay not given) [2] [µm] | also measured
rhuTPO (from UniProt P40225 22-353) (ligand) | – | colonies of 3-5 large cells, mouse marrow in methylcellulose, 1 nM TPO, #1-1 [1]: 15 colonies; colonies of 3-5 large cells, mouse marrow in methylcellulose, 1 nM TPO, #1-2 [1]: 12 colonies; colonies of 3-5 large cells, mouse marrow in methylcellulose, 1 nM TPO, #2-1 [1]: 16 colonies; colonies of 3-5 large cells, mouse marrow in methylcellulose, 1 nM TPO, #2-2 [1]: 13 colonies; colonies of 6-12 large cells, mouse marrow in methylcellulose, 1 nM TPO, #1-1 [1]: 6 colonies; colonies of 6-12 large cells, mouse marrow in methylcellulose, 1 nM TPO, #1-2 [1]: 1 colonies; colonies of 6-12 large cells, mouse marrow in methylcellulose, 1 nM TPO, #2-1 [1]: 8 colonies; colonies of 6-12 large cells, mouse marrow in methylcellulose, 1 nM TPO, #2-2 [1]: 3 colonies
CTRAQFLKGC (not fully specified; cysteine pairing not given here) [Table 8 compound, drawing CHEM-US-00044] | > 10 | –
CNRSQLLAAC (not fully specified; cysteine pairing not given here) [Table 8 compound, drawing CHEM-US-00046] | > 10 | –
CNINQLRSIC (not fully specified; cysteine pairing not given here) [Table 8 compound, drawing CHEM-US-00045] | > 10 | –
CTLKEWLVSHEVWC (not fully specified; cysteine pairing not given here) [Table 8 compound, drawing CHEM-US-00058] | > 10 | –
CTLAEFLASGVEQC (not fully specified; cysteine pairing not given here) [Table 8 compound, drawing CHEM-US-00057] | > 10 | –
REGPTLRQWM (not fully specified) [Table 8 compound, drawing CHEM-US-00060] | > 10 | –
CSLKEFLHSGLMQC (not fully specified; cysteine pairing not given here) [Table 8 compound, drawing CHEM-US-00056] | > 10 | –
REGPTLRQWLMSRS (not fully specified) [Table 8 compound, drawing CHEM-US-00061] | > 10 | –
CQRADLINFC (not fully specified; cysteine pairing not given here) [Table 8 compound, drawing CHEM-US-00048] | > 10 | –
CTLGQWLQMGMC (not fully specified; cysteine pairing not given here) [Table 8 compound, drawing CHEM-US-00051] | > 10 | –
CGTEGPTLSTWLDC (not fully specified; cysteine pairing not given here) [Table 8 compound, drawing CHEM-US-00054] | > 10 | –
CTSTQWLLAC (not fully specified; cysteine pairing not given here) [Table 8 compound, drawing CHEM-US-00047] | > 10 | –
CLLSEFLAGQQC (not fully specified; cysteine pairing not given here) [Table 8 compound, drawing CHEM-US-00049] | > 10 | –
CLTGPFVTQWLYEC (not fully specified; cysteine pairing not given here) [Table 8 compound, drawing CHEM-US-00052] | > 10 | –
CTLREFLDPTTAVC (not fully specified; cysteine pairing not given here) [Table 8 compound, drawing CHEM-US-00053] | > 10 | –
CELVGPSLMSWLTC (not fully specified; cysteine pairing not given here) [Table 8 compound, drawing CHEM-US-00055] | > 10 | –
